First the molecules themselves.
B1: EYNNIQHLF (peptide)
peptide: EYNNIQHLF
B2: NFLPPIIARF (peptide)
peptide: NFLPPIIARF
B3: SYIEKVRFL (peptide)
peptide: SYIEKVRFL
B4: LVLDYSKDYNHW (peptide)
peptide: LVLDYSKDYNHW
B5: SYTKVEARL (peptide)
peptide: SYTKVEARL
B6: VWAKILSAF (peptide)
peptide: VWAKILSAF
B7: KYLSIPAVFF (peptide)
peptide: KYLSIPAVFF
B8: IFINLSPEF (peptide)
peptide: IFINLSPEF
B9: TYISKTIAL (peptide)
peptide: TYISKTIAL
B10: VFLNQIYTQL (peptide)
peptide: VFLNQIYTQL
B11: KYLSLSNSF (peptide)
peptide: KYLSLSNSF
B12: SFDSNLLSF (peptide)
peptide: SFDSNLLSF
B13: KYLSIPTVF (peptide)
peptide: KYLSIPTVF
B14: KYLSIPAVF (peptide)
peptide: KYLSIPAVF
B15: KLYGMPTDFGF (peptide)
peptide: KLYGMPTDFGF
B16: VYGDGHYLTF (peptide)
peptide: VYGDGHYLTF
B17: IYGPKYIHPSF (peptide)
peptide: IYGPKYIHPSF
B18: YFEEAANFL (peptide)
peptide: YFEEAANFL
B19: MYAKEFDLL (peptide)
peptide: MYAKEFDLL
B20: PYASLASELF (peptide)
peptide: PYASLASELF
B21: TYLTGRQF (peptide)
peptide: TYLTGRQF
B22: RQYLAINQI (peptide)
peptide: RQYLAINQI
B23: TFQDKTLNF (peptide)
peptide: TFQDKTLNF
B24: KFLDSNIKF (peptide)
peptide: KFLDSNIKF
B25: VIAPIISNF (peptide)
peptide: VIAPIISNF
B26: SPLRGGSSL (peptide)
peptide: SPLRGGSSL
B27: APKLFAVAF (peptide)
peptide: APKLFAVAF
B28: LPDGSRVEL (peptide)
peptide: LPDGSRVEL
B29: KPAHYPLIAL (peptide)
peptide: KPAHYPLIAL
B30: APSGTRVVQVL (peptide)
peptide: APSGTRVVQVL
B31: VPSLQRLML (peptide)
peptide: VPSLQRLML
B32: HPIETLVDIF (peptide)
peptide: HPIETLVDIF
B33: LPALPQQLI (peptide)
peptide: LPALPQQLI
B34: MVPSAGQLALF (peptide)
peptide: MVPSAGQLALF
B35: RPAVGHSGL (peptide)
peptide: RPAVGHSGL
B36: YLLPSVVLL (peptide)
peptide: YLLPSVVLL
B37: YVSSGEMMV (peptide)
peptide: YVSSGEMMV
B38: KMILKMVQL (peptide)
peptide: KMILKMVQL
B39: RLWQIQHHL (peptide)
peptide: RLWQIQHHL
B40: KIDDIWNLEV (peptide)
peptide: KIDDIWNLEV
B41: FLNQIYTQL (peptide)
peptide: FLNQIYTQL
B42: RLASRPLLL (peptide)
peptide: RLASRPLLL
B43: ALAAELNQL (peptide)
peptide: ALAAELNQL
B44: ELMPRVYTL (peptide)
peptide: ELMPRVYTL
B45: ALFPERITV (peptide)
peptide: ALFPERITV
B46: RLFGLFLNNV (peptide)
peptide: RLFGLFLNNV
B47: SQTGFVVLV (peptide)
peptide: SQTGFVVLV
B48: LLMTSLTES (peptide)
peptide: LLMTSLTES
B49: KLLDEVTYL (peptide)
peptide: KLLDEVTYL
B50: GLTGVIMTI (peptide)
peptide: GLTGVIMTI
B51: KLHEIYIQA (peptide)
peptide: KLHEIYIQA
B52: SLQDTKITL (peptide)
peptide: SLQDTKITL
B53: GLPDFVKEL (peptide)
peptide: GLPDFVKEL
B54: GLMTIVTSL (peptide)
peptide: GLMTIVTSL
B55: VMLNSNVLL (peptide)
peptide: VMLNSNVLL
B56: VLITGLPLI (peptide)
peptide: VLITGLPLI
B57: YLPPTDPRMSV (peptide)
peptide: YLPPTDPRMSV
B58: YQDSWFQQL (peptide)
peptide: YQDSWFQQL
B59: KMMALVAEL (peptide)
peptide: KMMALVAEL

Experimental findings from US20180291082A1 (IMMATICS BIOTECHNOLOGIES, published 2018) are described below.

One experiment has as its target T1, HLA-A*24:02 (human).
T1 construct: Peptide-receptive MHC monomer made by UV cleavage of a UV-sensitive peptide
Kind of experiment: UV-ligand exchange, anti-b2m ELISA; exchange yield grade (+ >10%, ++ >20%, +++ >50, ++++ >75%). The essentials: (§1)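 UV-exchange products diluted 100-fold, captured on streptavidin-coated wells, 1 h 37 °C; HRP anti-β2m 2 ug/ml, 1 h 37 °C; TMB, A450. Standards: refolded HLA-A*02:01/MLA-001, 15-500 ng/ml. Yield = β2m signal of stabilised MHC.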
On to B1, for which the peptide exchange yield was 50 to 75%.
The same measure, in the same setting: in the case of B2 it was > 75%; in that of B3, 50 to 75%; in that of B4, 10 to 20%.
Regarding B5, the peptide exchange yield was in the range of 50 to 75%.
Still for that read-out and setting: in the case of B6 it was 50 to 75%; in that of B7, > 75%; in that of B8, > 75%.
B9 had a peptide exchange yield of 50 to 75%.
Still for that read-out and setting: as for B10, the figure is 20 to 50%; as for B11, > 75%; as for B12, 10 to 20%.
Still for that read-out and setting: in the case of B13 it was > 75%.
Same read-out and setting: in the case of B14 it was > 75%.
B15 returned a peptide exchange yield of 20 to 50%.
Take B16: the peptide exchange yield is 50 to 75%.
On to B17, for which the peptide exchange yield is > 75%.
The same measure, in the same setting: in the case of B18 it was 20 to 50%; in that of B19, 50 to 75%; in that of B20, > 75%.
Same read-out and setting: in the case of B21 it was 20 to 50%.
With B22, the peptide exchange yield fell in the range of 10 to 20%.
On to B23, for which the peptide exchange yield is 50 to 75%.
As for B24, the peptide exchange yield was in the range of 50 to 75%.
Same read-out and setting: as for B25, the figure is 50 to 75%.

The next experiment has as its target T2, HLA-B*07:02 (human).
T2 construct: Peptide-receptive MHC monomer made by UV cleavage of a UV-sensitive peptide
The description is as above. The essentials:
as §1
B26 came in with a peptide exchange yield of 20 to 50%.
On the same count and under the same terms, in the case of B27 it was 50 to 75%.
The same measure, in the same setting: as for B28, the figure is 20 to 50%.
Still for that read-out and setting: as for B29, the figure is 50 to 75%; as for B30, 20 to 50%; as for B31, 50 to 75%.
Regarding B32, the peptide exchange yield was 20 to 50%.
Take B33: the peptide exchange yield lay within 50 to 75%.
On the same count and under the same terms, as for B34, the figure is 20 to 50%.
In turn, B35 showed a peptide exchange yield of 20 to 50%.

A further experiment addresses T3, HLA-A*02:01 (human).
T3 construct: Peptide-receptive MHC monomer made by UV cleavage of a UV-sensitive peptide
The description is as above. The method in brief:
as §1
As to B36, the peptide exchange yield is > 75%.
Same read-out and setting: in the case of B37 it was 50 to 75%; in that of B38, 10 to 20%; in that of B39, 50 to 75%.
The same measure, in the same setting: in the case of B40 it was 50 to 75%.
Same read-out and setting: in the case of B41 it was > 75%; in that of B42, 50 to 75%; in that of B43, 50 to 75%.
Consider B44, for which the peptide exchange yield fell in the range of 50 to 75%.
As to B45, the peptide exchange yield is > 75%.
B46: the peptide exchange yield was > 75%.
On the same count and under the same terms, as for B47, the figure is 20 to 50%; as for B48, 50 to 75%; as for B49, 50 to 75%.
On the same count and under the same terms, as for B50, the figure is > 75%; as for B51, > 75%.
On the same count and under the same terms, as for B52, the figure is 50 to 75%.
B53: the peptide exchange yield is > 75%.
Still for that read-out and setting: as for B54, the figure is > 75%; as for B55, > 75%.
On the same count and under the same terms, in the case of B56 it was > 75%.
The same measure, in the same setting: in the case of B57 it was > 75%; in that of B58, 50 to 75%; in that of B59, > 75%.
